In publication PMC3644067 (Nature Communications, 2013):

Target: T1, α4 (3–233) E206R (human, UniProt P78318 3-233, E206R)
T1 sequence (looked up): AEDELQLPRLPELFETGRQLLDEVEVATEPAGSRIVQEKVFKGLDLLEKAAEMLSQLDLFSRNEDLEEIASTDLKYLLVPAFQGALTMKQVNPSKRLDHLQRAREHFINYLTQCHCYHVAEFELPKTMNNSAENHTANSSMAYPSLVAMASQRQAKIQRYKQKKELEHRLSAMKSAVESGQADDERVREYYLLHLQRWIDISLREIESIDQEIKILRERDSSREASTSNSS
Test: pull-down

binding result: binds
B1: GST-tagged nPP2Ac (1–153) (domain or fragment, human, UniProt P67775 1-153, looked up)
chain: MDEKVFTKELDQWIEQLNECKQLSESQVKSLCEKAKEILTKESNVQEVRCPVTVCGDVHGQFHDLMELFRIGGKSPDTNYLFMGDYVDRGYYSVETVTLLVALKVRYRERITILRGNHESRQITQVYGFYDECLRKYGNANVWKYFTDLFDYL
